Values of other authors in publication PMC4676407.
pKd: −log10 of the molar value.

Target: Akt kinase domain kinase domain (Homo sapiens) (UniProt P31749)

- pKd: < 2.30
Substance: Akt C-terminal peptide C-terminus (from UniProt P31749)
